Measured values published in a protein production outcome set (Wang et al. 2014).

Assay: label from the status in PepcDB records

Sequence	protein production
SLTMDVPPTIHVPLPPTSYPAFDAAIFTDIGGRKHQEDRFTLCPQLVPGRDDCAFFGVFDGTVGDFASENVKDLVVPQLISSPAWQEVTEMLRSDVPATEVDEKLPQLLDQAVDDMYKNADNELVKMCEQLNKDYASSTSVTAVLAKGFVAVGHLGDSRIAMGVETPNGLNCEFLTVDHKPDMPHEKLRIMRNGGSVEYLHNHNNKPFIRGGDFSFRKSRGEQPMQLQYSRAFGGKDLKMYGLSNQPDVRVVRVTPQHRVMILATDGLWDVMSAAQAVEIAMQARQEGRNPAQALVEMTLAEQQSRNQSADNITAMTVFFKKTD	not failed
MSLAPRPRILICEDDPDIARLLNLMLEKGGFDSDMVHSAAQALEQVARRPYAAMTVDLNLPDQDGVSLIRALRRDSRTRDLAIVVVSANAREGELEFNSQPLAVSTWLEKPIDENLLILSLHRAIDNMAEGKEGHHHHHH	not failed
MSKFYSEQFKRDAVALYENNENLSLAAAAAELRVNRASLHQWKKELGTGKRTRMIEAKAQAEAASDAERIRALEKENAKLREERDILRKAAKYFAEETSWLEHHHHHH	failed
MRAAFLIGILAAMGALTQGGSISETVGAGLIDGATITSLAAVAGLLTATGFMAFGIYSGYPVPAAFATTGAMVGVGLSLGGQPVFDTYRRIATFWLLVPPVSGSLAYLTATVLRRDDIPETVGVPLLAGVVGGIVANVQLSIIPSPAGTDQGSLAGFAAMVAGTDIAAVATTLLVAAGSFYYIRRQTQASVDKGIKTFLVVLGSVVAFSSGGSQVGLATGPLENLYRAELGLPGFVLLALGAVGILGGAWMGAPRLLQATSREYAQLGVRRSIAALVPGFIIAQAAIALGIPISFNNIIISGVIGGGLAGGSAGVSRRKIGVTVGFWLITLVTSVVIGFGVYQVLEAALGSQV	failed
MSLDIQSLDIQCEELSDARWAELLPLLQQCQVVRLDDCGLTEARCKDISSALRVNPALAELNLRSNELGDVGVHCVLQGLQTPSCKIQKLSLQNCCLTGAGCGVLSSTLRTLPTLQELHLSDNLLGDAGLQLLCEGLLDPQCRLEKLQLEYCSLSAASCEPLASVLRAKPDFKELTVSNNDINEAGVRVLCQGLKDSPCQLEALKLESCGVTSDNCRDLCGIVASKASLRELALGSNKLGDVGMAELCPGLLHPSSRLRTLWIWECGITAKGCGDLCRVLRAKESLKELSLAGNELGDEGARLLCETLLEPGCQLESLWVKSCSFTAACCSHFSSVLAQNRFLLELQISNNRLEDAGVRELCQGLGQPGSVLRVLWLADCDVSDSSCSSLAATLLANHSLRELDLSNNCLGDAGILQLVESVRQPGCLLEQLVLYDIYWSEEMEDRLQALEKDKPSLRVIS	not failed
MSGSLLLLFVFLSAFLAPPLSRLLRMPVPVGELVIGLLLGHFLAQGVALPEILGFLADFGFLLLMFLAGLEVDFNLLRQLERRHFVFYALYVVGMFLGAGLLAGLLGVGLAQALILALVSIGLMVATLRDMGILGRAFAKRVLILGVLGEVASLFGLTAMEKAAHYQGLLSLLKEVGIIALFFLLLFLAFRLAGLFLWWYPEVGRRLVYEEDPSAMGIRLSLALMFAAAVMSGLVGLESVLGAFLAGMILSYFLQKKHDLEAKLSAMGYGFLIPIFFIRTGMGIDLSGLDGRLLLEVGQALLLMLLIRLLPAPFLLLGGFRLREAFLAALLLAYPFTLMIAGTEIARSAHLLDERAALVLLLAAALSSLLFPWTAKMLLRFLR	failed
MTAFDPFEDFGDTEEIGERLNDADPAVRRLAVIDLAETANADVLPHLLTAVADPDATVRLQVAIALSEFDTVEAAAGLARLAADQDLTVAQAAADSLAELKDPATADSILPLVSHGRAFVRAAGFRGLKALRSRGALAPALAAMRDEDANVRAQALGVVAYLKLEETLPSLIAATRDAEAIVRSVAVNALSFTSQPAAAAAVTAALDDENWQVRAAAADTLGRIGQTSAVDGLTAGLSDEYWQVRQKCLNALGKLKAQSAVRQISELLTSDLASLRKESAAALGEIADPSSRAVLMHHIGDADPDVRKTVCWALTRLG	failed
MNRAFSRKKDKTWMHTPEALSKHFIPYNAKFLGSTEVEQPKGTEVVRDAVRKLKFARHIKKSEGQKIPKVELQISIYGVKILEPKTKEVQHNCQLHRISFCADDKTDKRIFTFICKDSESNKHLCYVFDSEKCVSIPDVVGWFVLFYKPGIVLLLALAKYLKMNNFL	failed
SQIYASDGETELARIVPPEGNRQMVTIDQVPDTVKNAVVAAEDREFYTNPGFSITGYARAALGVITGDSSAGGGSTITQQYVKKAVVGDERSLIRKAKELVYSAKMANEWSKDEVLEAYLNTVYFGRNAYGVQAAAHAFFDKPVEELTAAEGAVLAASIQLPSQLDPWTNP	failed
ELAWLVDCLAPIFDGLRQPVTVVDPSGRFVYYNRASGLLDGLDPQRALGMHLLQSAPWLAAEQSTLLRCLAEGRPSIDTLQAYVGAGGELLQYRHRAIPLRGRDGCLLGAMEL	failed
MGGITMTAVVSNRDKINFHEVADHYHSNKIIFGIKFLKNWALERLASCAPVPSWRAKLHKMRGVNIGENVYIGYDVIFDRIHPEMITVGDYAEIGDRCILSAHSRGSLTTRQAYPRSIAPIKIGRGVSVNPGCIITQGVEIGDNSIIGVGSVVSRNISPNSLALGYPAKVIKKLDGVGELQTLEHHHHHH	failed
MGHQSSWMKQTVIDSVVQSSKVGVFSMFSMDYKAPRKYSHGRNFGVARQQDFAADIVTRRPYAPYDNGMKKGPNKLSRNLVWTSKEYKSPEGNRPRQNAANGSAKPQVIGTGHRVSNQPRKNAVYGPRSSSLSDTRGCGPRLNGSPKKSVCNFWKDGNCKKGEKCQFLHSWSCFPGLAMVAALEGHKNDIKGIALPQGSDKLFSVSGDGTLLIWDCNSGQCVRSINLQAEAGSLISEGPWVFLGLPNAVKAFNVQNSKDVHLEGVVGQVHAMTAANGMLFAGTSSGSILVWKATDSESDPFKYLTSLEGHHSGEVTCFVVGGEVLYSGSVDKTIKVWDLNTLQCRMTLKQHIGTVTSLLCWDKCLISSSLDGTIKLWACSENESLKVVQTRKQELSVHTLCGMHDAEAKPIMFCSYQNGAVGIFDLPSFEERGKMFSTQTICTLTIGPGGLLFSGDKSGNLRVWSLASGTKV	failed
METLLIQQTEKSNKFWKIVVKEKDYVVFYGKIGTAGSVKAKEFETEEECMNEANKLVASKRKKGYIDPLPGEDYIKEKTITEEEFWELLHRAKTKGEDQEEQIEWLTSHLAKRTVHEIVAFDTHMHSLLKDSYTSRLWAAAYIIMGGCSDDTFDYFRGWLLYQGKETYEACIEDPERLIPVLENLSEYDVPEIEELSLYFGFTVYAEKTGDEDDTYFTLYHVLSNEEFDDVDFEFDWNEDDEEGLKKVFPRLWEMYGEEPIEWLEHHHHHH	not failed
MAETIQNFLTEYYSIAIPLSILINIIISLLGFIPSIFLTAINIQLFGVTNGTVISIAGEALGAIISFYIYRMGLQKFTHDKVNKYPKVERLLYVEGREAFLLVLSFRLIPFIPSSIVTLFAALGKMSLLSFSIASTIGKIPALLIEVYSAYHVMNGTNEAKWIVTIAGCIGLYYLWKKWRKK	failed
MKKAIYLLILCIFGLFSVYFTYAENISDISNTTSKNISSSNISHNNIIYSNINYNEILYIIVKNNTAYVKDVINGTNNPYHIKSAGIILYEKIYGYNYSNLLYRNSSNSLIFYYNFSVDKINYTINITIPQIEDYVGSLGGPIRMRIPPNNVKIIIVAENKLAETNGKYILEYNKTDKKVISLIYLDNVSSICNIYYTKFFNSSEFYGYAVANVTSITENRTSYTIKNPKGTFTFDRKYNVFVSNKTAYLKEPYLYVKLYNSTIDDIIILENNKISENSTKFMSNYLLSFIGIIIGFGIIGLAIYLSKRGRK	failed
SSSSCTVTTGTLGFGDKFKRPIGSWECSVCCVSNNAEDNKCVSCMSEKPG	not failed
MKKLNSKGIRLSELMEKWRRRKKGHFAVYTNEGKRFVLPLDYLNHPMLQVLLQMAEDEFGTTIDGPLKVPCDGSLMDHIIMLVRRSMSHDYDDVEKSSTSSTCKGASISSLFRGQSQLQSLVS	failed
MSSLKDNYQSKVKAYQPSPPYVLNCIKAFLVGGLICTIGQAFQNFYMAVFHFDEKTAGNPTVATLILISALLTGLGVYDRIGQFAGAGSAVPVTGFANSMTSAALEHKSEGYVLGVGTNMFKLAGNVIVFGVVAAYIVGMIRFAFDKLF	failed
